Columns and labels:
[1] = molecular target: T1, E2 glycoprotein expressed by recombinant vaccinia virus vHCV1-1488 (HCV-H) (Hepatitis C virus strain H (genotype 1a), UniProt P27958 384-746); test: pulse-chase immunoprecipitation, reducing SDS-PAGE
T1 construct: 35S-labelled and immunoprecipitated from cell lysates in pulse-chase experiments

[2] = molecular target: T2, subtype 1b derived E2 (BK strain) expressed by recombinant Sindbis virus Sinrep/HCV-BK1-1207 (Hepatitis C virus strain BK (genotype …, UniProt P26663 384-746)); test: immunoprecipitation from cells infected with Sinrep/HCV-BK1-1207
T2 construct: Immunoprecipitated from lysates of infected cells; also called genotype 1b antigen
T2 sequence (P26663 384-746 limits assumed): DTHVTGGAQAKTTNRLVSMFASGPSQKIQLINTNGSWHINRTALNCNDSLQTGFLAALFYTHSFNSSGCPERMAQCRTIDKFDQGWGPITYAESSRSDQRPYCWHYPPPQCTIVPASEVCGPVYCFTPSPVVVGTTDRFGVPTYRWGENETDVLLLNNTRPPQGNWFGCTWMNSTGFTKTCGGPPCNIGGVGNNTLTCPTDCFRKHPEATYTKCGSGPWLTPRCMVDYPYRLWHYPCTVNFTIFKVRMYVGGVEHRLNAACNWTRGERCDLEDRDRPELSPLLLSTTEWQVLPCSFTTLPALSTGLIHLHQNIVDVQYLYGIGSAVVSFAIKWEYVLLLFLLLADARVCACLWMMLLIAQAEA

T1 sequence (P27958 384-746 limits assumed): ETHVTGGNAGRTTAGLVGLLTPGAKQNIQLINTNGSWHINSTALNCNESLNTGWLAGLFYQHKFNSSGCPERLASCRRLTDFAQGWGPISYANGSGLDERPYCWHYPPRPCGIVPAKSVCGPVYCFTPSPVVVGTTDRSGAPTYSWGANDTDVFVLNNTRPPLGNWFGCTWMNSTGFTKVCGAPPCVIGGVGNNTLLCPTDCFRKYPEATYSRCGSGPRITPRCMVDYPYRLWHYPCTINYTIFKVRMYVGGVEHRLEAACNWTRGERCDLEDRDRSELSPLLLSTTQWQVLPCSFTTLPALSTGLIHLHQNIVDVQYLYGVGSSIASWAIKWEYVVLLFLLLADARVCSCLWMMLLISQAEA

B1: HMAb 503 (antibody, V domains shown)
VH: QVQLQQWGAGLLKPSETLSLTCAVYGGSLSGYFWTWIRQSPGKGLEWIGESNYSGSTRYNPSLKSRVTISVDTSQNQFSLKLSSVTAADTAVYYCARGWAVDGMDVWGQGTTVTVSS
VL: SYELTQPPSVSVSPGQTARITCSGDALPKQYAYWYQQKPGQAPVLVIYKDNERPSGIPERFSGSRSGTTVTLTISGVQAEDEADYYCQSADSSGSSWVFGGGTKLTVL
notes: also called antibody 503; clone 503
binding result [1]: binds
binding result [2]: binds
